According to article PMC11032491, “A conserved strategy to attack collagen: The activator domain in bacterial collagenases unwinds triple-helical collagen” (Proceedings of the National Academy of Sciences of the …, 2024):
pKd: −log10 of the molar value.

Legend:
[1] = molecular target: type I gelatin (heat-denatured acid-soluble type I atelocollagen from bovine hides) (bovine) (UniProt P02453); experiment: ELISA; indirect ELISA; gelatin coated on the plate (5 µg/ml); His-tagged collagenase variant in PBST with 1% BSA, serially diluted 1:3, 140 min at 37 °C; detected with anti-His-HRP; Hill fit; apparent Kd
[2] = molecular target: soluble type I collagen (acid-soluble type I atelocollagen from bovine hides) (bovine) (UniProt P02453); experiment: ELISA; indirect ELISA; soluble type I collagen coated on the plate (5 µg/ml); His-tagged collagenase variant in PBST with 1% BSA, serially diluted 1:3, 140 min at room temperature (25 °C); detected with anti-His-HRP; Hill fit; apparent Kd
soluble type I collagen (acid-soluble type I atelocollagen from bovine hides) (bovine), sequence (P02453 162-1217, chain 1 of 2): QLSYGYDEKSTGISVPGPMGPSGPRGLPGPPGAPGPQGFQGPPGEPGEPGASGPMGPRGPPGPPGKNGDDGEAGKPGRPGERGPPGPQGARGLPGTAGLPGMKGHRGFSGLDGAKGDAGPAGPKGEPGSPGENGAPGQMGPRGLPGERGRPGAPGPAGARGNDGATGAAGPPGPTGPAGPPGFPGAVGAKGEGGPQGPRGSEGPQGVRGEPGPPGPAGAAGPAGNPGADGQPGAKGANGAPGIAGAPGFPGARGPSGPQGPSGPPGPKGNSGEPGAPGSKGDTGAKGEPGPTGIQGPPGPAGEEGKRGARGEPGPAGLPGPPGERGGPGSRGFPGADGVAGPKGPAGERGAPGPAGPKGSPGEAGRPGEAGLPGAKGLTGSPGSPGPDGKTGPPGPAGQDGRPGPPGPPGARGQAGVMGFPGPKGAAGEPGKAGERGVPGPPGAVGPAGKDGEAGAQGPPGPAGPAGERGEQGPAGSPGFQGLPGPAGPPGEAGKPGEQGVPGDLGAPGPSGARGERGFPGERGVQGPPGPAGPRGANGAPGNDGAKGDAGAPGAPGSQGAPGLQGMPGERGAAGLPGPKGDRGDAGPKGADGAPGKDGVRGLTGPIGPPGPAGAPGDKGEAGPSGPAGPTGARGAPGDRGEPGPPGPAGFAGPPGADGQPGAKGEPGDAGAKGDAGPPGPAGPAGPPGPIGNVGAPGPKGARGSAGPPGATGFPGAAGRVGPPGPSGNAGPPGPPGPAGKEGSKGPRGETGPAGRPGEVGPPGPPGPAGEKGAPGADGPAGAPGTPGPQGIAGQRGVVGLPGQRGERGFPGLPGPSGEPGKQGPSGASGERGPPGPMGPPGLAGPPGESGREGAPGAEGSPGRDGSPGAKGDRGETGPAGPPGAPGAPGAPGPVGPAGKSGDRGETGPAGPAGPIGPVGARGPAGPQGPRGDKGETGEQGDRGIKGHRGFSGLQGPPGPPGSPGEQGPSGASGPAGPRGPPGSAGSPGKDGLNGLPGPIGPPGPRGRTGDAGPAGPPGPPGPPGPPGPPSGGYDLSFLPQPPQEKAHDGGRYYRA
soluble type I collagen (acid-soluble type I atelocollagen from bovine hides) (bovine), sequence (P02465 80-1117, chain 2 of 2, further chain): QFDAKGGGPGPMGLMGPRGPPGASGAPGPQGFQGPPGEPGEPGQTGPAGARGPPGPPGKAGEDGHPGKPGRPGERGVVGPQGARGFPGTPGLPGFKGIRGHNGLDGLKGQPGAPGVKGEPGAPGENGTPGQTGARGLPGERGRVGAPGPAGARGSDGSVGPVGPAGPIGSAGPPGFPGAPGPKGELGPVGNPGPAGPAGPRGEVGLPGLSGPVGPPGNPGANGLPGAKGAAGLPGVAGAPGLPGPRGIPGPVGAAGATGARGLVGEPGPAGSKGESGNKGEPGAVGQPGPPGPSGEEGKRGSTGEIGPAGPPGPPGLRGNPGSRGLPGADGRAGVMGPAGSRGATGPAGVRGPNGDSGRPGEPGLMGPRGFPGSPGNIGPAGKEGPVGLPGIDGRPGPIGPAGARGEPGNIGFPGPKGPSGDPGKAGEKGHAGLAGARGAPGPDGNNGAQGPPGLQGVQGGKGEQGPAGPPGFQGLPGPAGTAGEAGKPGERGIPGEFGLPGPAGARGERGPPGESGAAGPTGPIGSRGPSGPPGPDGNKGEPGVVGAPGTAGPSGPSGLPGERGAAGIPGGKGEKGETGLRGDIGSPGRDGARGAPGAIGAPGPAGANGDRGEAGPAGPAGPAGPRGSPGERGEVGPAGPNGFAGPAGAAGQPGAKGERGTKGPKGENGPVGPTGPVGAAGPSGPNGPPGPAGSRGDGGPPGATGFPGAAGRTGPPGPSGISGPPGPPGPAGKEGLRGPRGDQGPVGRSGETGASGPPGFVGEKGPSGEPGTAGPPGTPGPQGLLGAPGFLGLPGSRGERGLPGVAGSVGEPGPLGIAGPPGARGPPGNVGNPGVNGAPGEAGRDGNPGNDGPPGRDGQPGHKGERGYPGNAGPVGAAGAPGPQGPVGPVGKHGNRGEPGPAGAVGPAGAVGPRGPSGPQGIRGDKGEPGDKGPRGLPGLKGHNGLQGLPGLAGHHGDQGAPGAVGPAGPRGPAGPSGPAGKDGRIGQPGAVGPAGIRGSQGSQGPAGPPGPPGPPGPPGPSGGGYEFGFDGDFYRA

type I gelatin (heat-denatured acid-soluble type I atelocollagen from bovine hides) (bovine), sequence (P02453 23-1217, chain 1 of 2): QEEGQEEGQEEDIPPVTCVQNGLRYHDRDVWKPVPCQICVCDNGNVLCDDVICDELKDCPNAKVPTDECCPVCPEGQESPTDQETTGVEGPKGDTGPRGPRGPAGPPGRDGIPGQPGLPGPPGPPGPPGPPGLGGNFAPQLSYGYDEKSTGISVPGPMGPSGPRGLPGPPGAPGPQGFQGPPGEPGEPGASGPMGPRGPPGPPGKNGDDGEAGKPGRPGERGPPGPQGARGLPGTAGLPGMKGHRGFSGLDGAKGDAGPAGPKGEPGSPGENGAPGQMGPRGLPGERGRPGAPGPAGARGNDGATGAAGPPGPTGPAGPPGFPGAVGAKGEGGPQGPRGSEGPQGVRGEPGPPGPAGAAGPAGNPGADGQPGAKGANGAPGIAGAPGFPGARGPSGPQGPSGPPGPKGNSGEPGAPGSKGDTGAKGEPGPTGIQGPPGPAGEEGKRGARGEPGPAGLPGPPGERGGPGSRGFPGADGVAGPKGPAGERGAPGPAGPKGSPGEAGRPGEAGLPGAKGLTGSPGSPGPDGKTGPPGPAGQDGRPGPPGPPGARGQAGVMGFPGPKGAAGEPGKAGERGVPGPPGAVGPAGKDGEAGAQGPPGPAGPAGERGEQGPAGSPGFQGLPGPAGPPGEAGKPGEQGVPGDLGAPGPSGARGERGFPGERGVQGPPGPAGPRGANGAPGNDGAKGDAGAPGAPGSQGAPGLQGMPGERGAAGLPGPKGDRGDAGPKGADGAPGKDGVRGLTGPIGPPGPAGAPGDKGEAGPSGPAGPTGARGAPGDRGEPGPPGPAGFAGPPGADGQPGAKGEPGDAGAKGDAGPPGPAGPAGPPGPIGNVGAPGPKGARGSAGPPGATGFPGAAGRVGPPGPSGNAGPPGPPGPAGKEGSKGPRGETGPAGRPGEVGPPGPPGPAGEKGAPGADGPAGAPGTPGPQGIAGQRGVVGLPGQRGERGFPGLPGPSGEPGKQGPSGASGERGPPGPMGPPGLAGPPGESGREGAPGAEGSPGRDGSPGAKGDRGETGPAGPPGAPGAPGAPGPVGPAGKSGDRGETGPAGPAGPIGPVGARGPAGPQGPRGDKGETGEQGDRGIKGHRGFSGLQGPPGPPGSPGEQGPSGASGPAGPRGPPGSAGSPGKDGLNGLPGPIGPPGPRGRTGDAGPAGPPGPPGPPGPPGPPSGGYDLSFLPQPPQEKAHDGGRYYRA
type I gelatin (heat-denatured acid-soluble type I atelocollagen from bovine hides) (bovine), sequence (P02465 80-1117, chain 2 of 2, further chain): as the sequence (P02465 80-1117, chain 2 of 2, further chain) above

Row | Substance | pKd [1] | pKd [2]
1 | ColQ1-CU G472V F123A (from UniProt B9J3S4 94-965) (domain or fragment) | 5.80 | –
2 | ColQ1-CU G472V Y321A (control mutant) (from UniProt B9J3S4 94-965) (domain or fragment) | 5.60 | 5.40
3 | ColQ1-CU G472V N317A (control mutant) (from UniProt B9J3S4 94-965) (domain or fragment) | 5.64 | 5.55
4 | ColQ1-CU G472V Y251A (control mutant) (from UniProt B9J3S4 94-965) (domain or fragment) | 5.60 | 5.55
5 | ColQ1-CU G472V E166A (from UniProt B9J3S4 94-965) (domain or fragment) | 5.30 | –
6 | ColQ1-CU G472V R169A (from UniProt B9J3S4 94-965) (domain or fragment) | 5.55 | 6.77
7 | ColQ1-CU G472V Y173A (from UniProt B9J3S4 94-965) (domain or fragment) | 4.62 | –
8 | ColQ1-CU G472V Y270A (from UniProt B9J3S4 94-965) (domain or fragment) | 5.38 | 6.72
9 | ColQ1-CU G472V F176A (from UniProt B9J3S4 94-965) (domain or fragment) | 5.92 | 7.10
